Measurements taken from the supplement of paper PMC10567573.
± gives the standard deviation.

Assay: protein stability index of a GFP-peptide fusion (GPS, HEK-293T) (PSI 1-6); higher = more stable
[1] = treatment: DMSO, c terminus: a fixed tail appended
[2] = treatment: MLN4924 1 uM, 8 h, c terminus: a fixed tail appended
[3] = treatment: DMSO, c terminus: native
[4] = treatment: MLN4924 1 uM, 8 h, c terminus: native
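Also: 24-mer peptide tiles fused after GFP, lentivirally expressed, FACS-sorted into six equal bins by GFP/DsRed ratio, decoded by Illumina sequencing, PSI is the read-weighted mean bin number.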

| Sequence | protein stability index [1] | protein stability index [2] | protein stability index [3] | protein stability index [4] |
| --- | --- | --- | --- | --- |
| PSFHPHAGGGSQENLDNDTETDSL [DVL3] | 5.58 ± 0.31 | 5.5 ± 0.29 | – | – |
| HSVFEFLAFKNDIQFWNSRQSLEG [CLPTM1] | 2.03 ± 0.17 | 2.13 ± 0.28 | – | – |
| LSLCCWGWVSGQLRYSVVEESEPG [PCDHGC5] | 2.65 ± 0.48 | 2.25 ± 0.5 | – | – |
| LLLENGAGINTHSNEFKESALTLA [ANKRD17] | 2.32 ± 0.54 | 2.76 ± 0.6 | – | – |
| YMDTKLLVARFLEQSSCTMTPDIH [FAM189A2] | 2.15 ± 0.45 | 2.18 ± 0.084 | – | – |
| RKMSLLKFLAKVNGSDPRSFPLWY [MAGEA10] | 2.38 ± 0.63 | 2.01 ± 0.22 | – | – |
| PMAEYNMPQYILREFKVTDARDGQ [PTPRD] | 3.8 ± 0.24 | 3.75 ± 0.27 | – | – |
| NCPAHWLAQDWERCNTTCGRGVKK [ADAMTSL2] | 4.16 ± 0.19 | 4.42 ± 0.16 | – | – |
| RFNRIGLPPKVGSFQLFVEGYKDA [PI4K2A] | 2.39 ± 0.29 | 2.77 ± 0.51 | – | – |
| FYLVYFKIQASGETPNSLNTTVIP [LYSMD4] | 2.9 ± 0.04 | – | – | – |
| QGPPMVPPYQGGPPRPPMGMRPPV [ZNF207] | 4.31 ± 0.12 | 4.18 ± 0.081 | – | – |
| YTFLYLVCISTKTQCSEEDQCKIN [FEM1B] | 2.65 ± 0.51 | 2.33 ± 0.2 | – | – |
| TGVQEVLSALLRATPGEYSVNICG [SPAG8] | 2.5 ± 0.59 | 2.23 ± 0.16 | – | – |
| LLYNRSNNKYSYTSNSDDNMLKNI [KCTD10] | 2.52 ± 0.28 | 2.74 ± 0.6 | – | – |
| PTHTPRPADFSLGSLPGPGQTSGA [VENTX] | 4.44 ± 0.18 | 4.5 ± 0.2 | – | – |
| TPSLLRFALASLLQSAPDVKGRVR [ZSWIM9] | 2.5 ± 0.16 | 2.53 ± 0.34 | – | – |
| AFARQAAQEPSAVPRAGPLTVNTE [FOXJ1] | 4.54 ± 0.17 | 4.49 ± 0.24 | – | – |
| LKVRSHDPEEAIRHDVIVSIVTAA [PDS5B] | 2.43 ± 0.19 | 2.35 ± 0.27 | – | – |
| ISVILPTVHEVDIFRCFCPVFLHS [DENND6A] | 3.07 ± 0.19 | 3 ± 0.56 | – | – |
| SIPNLAEVKKKGKMKKLGQAMEED [HDAC6] | 4.8 ± 0.088 | 4.86 ± 0.44 | – | – |
| AGAEPLPRNGDQWHEIRQGRLPRI [WEE1] | 3.86 ± 0.47 | 4.24 ± 0.4 | – | – |
| LEEAEGAVGYQPEYSKFCRMSYQD [NFE2L1] | 3.56 ± 0.4 | 3.05 ± 0.31 | – | – |
| GVPNASVIMQVPERIVVAGNNEDV [MFF] | 4.68 ± 0.72 | 4.35 ± 0.31 | – | – |

| Sequence | protein stability index [1] | protein stability index [2] | protein stability index [3] | protein stability index [4] |
| --- | --- | --- | --- | --- |
| LLTLLPQLQEAWQQRTPSPVPGG [RSAD1] | – | – | 3.3 ± 0.21 | 2.83 ± 0.54 |
| HIFPASRWEPYDPEKKWDKYTIR [FAM50A] | – | – | 2.82 ± 0.45 | 3.15 ± 0.51 |
| SHEDVCVFKCSVSRETECSRVGKQ [CARM1] | 4.11 ± 0.25 | 4.12 ± 0.31 | – | – |
| LRAFVNSQIQGHKEMSKVWNDLRP [SNX8] | 2.39 ± 0.21 | 2.62 ± 0.27 | – | – |
| ARRRQSAGPWPRPKGSLSMGPAPR [RASAL3] | 3.81 ± 0.25 | 4.03 ± 0.33 | – | – |
| WNVAAPLYLKQSDLASAAAKQIME [INTS4] | 2.67 ± 0.13 | 2.81 ± 0.05 | – | – |
| AVQQVQRLPFLSSSNLSLDVLRGN [POMP] | 2.87 ± 0.24 | 2.98 ± 0.35 | – | – |
| IAMAVYTYLRLIVDHHGTAQLQAL [INTS3] | 3.35 ± 0.51 | 3.17 ± 0.14 | – | – |
| EHRVAGIFPRLSFKDKSTYIESST [CLPTM1] | 3.16 ± 0.2 | 2.93 ± 0.29 | – | – |
| SAASSAAAGEPLECPTCGHSYNVT [RNF208] | 4.87 ± 0.27 | 4.77 ± 0.24 | – | – |
| KESESEAKVDGETASDSESRAESA [CDS2] | 5.6 ± 0.17 | 5.34 ± 0.34 | – | – |
| RRKQRYWPFSMDCTGTEAHISSCK [LOXL2] | 3.17 ± 0.49 | 3.52 ± 0.57 | – | – |
| KSKASFLLLASGLVITDFFGHLIN [PTGFR] | 3.11 ± 0.27 | 2.88 ± 0.57 | – | – |
| DSLEKTDDDKYKITLKYPHYFPVM [NLN] | 2.73 ± 0.27 | 2.7 ± 0.28 | – | – |
| LMRAQRNYMVQTEDQYIFIHDALL [PTPRD] | 2.48 ± 0.46 | 2.41 ± 0.53 | – | – |
| WFLNALHSALGGTKKKKKTIVTDV [USP39] | 2.6 ± 0.61 | 2.19 ± 0.47 | – | – |
| VSHVGWDPQNGFDVNNLDPDLRSL [WAS] | 3.9 ± 0.24 | 3.98 ± 0.3 | – | – |
| NFLTQRENTIAGANHTHTFYGHSH [C10orf62] | 3.1 ± 0.26 | 3.09 ± 0.2 | – | – |
| KRKVDTGGFLSESKDCKPPVYLLL [MYBL2] | 2.01 ± 0.51 | 2.61 ± 0.72 | – | – |
| GTETHGLVQVTLLDTVELATYCVR [PTPRD] | 2.39 ± 0.22 | 2.55 ± 0.51 | – | – |
| YNWEEERATNHLDQVPSMQDGSES [SPAG8] | 5.33 ± 0.23 | 5.44 ± 0.15 | – | – |
| KRASAPTFDNDYSLSELLSQLDSG [RIPK4] | 3.75 ± 0.37 | 3.56 ± 0.15 | – | – |
